The source of these data is patent publication US9872893B2, “Endolysins active against Staphylococcus bacteria, pharmaceutical compositions, and methods relating thereto” (priority 2014, dated 2018).

Series [1] deals with stationary phase S. aureus NRS-14. In words: turbidity reduction assay (lytic activity). The conditions noted are these: for decrease in optical density: 15 minutes. The series is classed as cell-based, Staphylococcus aureus. The method, then:
Lytic activity was based on turbidity reduction assay (Nelson D C et al. (2012) Endolysins as antimicrobials. Adv Virus Res 83:299-365). Briefly, bacterial cells were centrifuged (4,000 RPM, 5 minutes, 4° C.), re-suspended in buffer and mixed 1:1 (v/v) with endolysin to a final OD600=1. OD600 readings were taken every 15 seconds for 20 minutes at 37° C. Endolysin activity was equated to the Vmax dictated by the linear portion of the resulting killing curve. Each experiment was performed in triplicate.
To determine dose response, PlyGRCS was serially diluted and each dosage (100 μl) was added in triplicate to a 96-well polystyrene microtiter plate (Nest Biotech Co, Ltd) just before addition of bacterial cells (100 μl) according to the turbidity reduction assay described above. For optimum pH determination, bacterial cells were suspended in 40 mM boric acid/phosphoric acid (BP) buffer, pH 3-11, and were challenged against PlyGRCS. The influence of NaCl on PlyGRCS activity was tested in BP buffer at the experimentally determined pH optimum using the same assay. The effect of divalent cations was determined using the turbidity reduction assay with several modifications. First, PlyGRCS was incubated at room temperature in PBS or PBS supplemented with 5 mM EDTA for 10 minutes. Second, the EDTA-treated samples received either no further treatment, or were supplemented with 6 mM CaCl2 or 6 mM MgCl2. Finally, the lytic active of the samples was then immediately assayed and compared to PlyGRCS in PBS prior to EDTA inactivation. Kinetic stability was evaluated (Son B et al. (2012) Characterization of LysB4, an endolysin from the Bacillus cereus-infecting bacteriophage B4. BMC Microbiol 12:33) with minor modifications. Lytic assays were performed in optimal conditions after PlyGRCS was incubated at indicated temperatures for 30 minutes and subsequently recovered on ice for 5 minutes.

Series [2] concerns SA113 ΔtagO cell walls (staphylococcal peptidoglycan). In words: cleavage analysis by mass spectrometry. The following applies: 50 μg/ml, 18 hours, ESI-MS of digest. Type of series: biochemical, Staphylococcus aureus. The method, then:
Briefly, SA113 ΔtagO cell walls (Atilano M L et al. (2010) Teichoic acids are temporal and spatial regulators of peptidoglycan cross-linking in Staphylococcus aureus. Proc Natl Acad Sci USA 107(44):18991-6; Weidenmaier C et al. (2004) Role of teichoic acids in Staphylococcus aureus nasal colonization, a major risk factor in nosocomial infections. Nat Med 10(3):243-5) were digested in 25 mM Tris, 200 mM NaCl, pH 7.4 at 37° C. for 18 hours with 50 μg/ml of PlyGRCS, filtered through 5000-MW cutoff Vivaspin 500 units (Sartorius North America Inc., Bohemia, N.Y.), and desalted using C18 Zip Tips (Millipore, Zug, Switzerland). Controls included peptidoglycan digested with the amidase domain of 2638A, a known N-acetylmuramoyl-L-alanine amidase, or undigested peptidoglycan. To further define the PlyGRCS cut site, double digests with PlyGRCS and a truncation construct containing only the CHAP domain of LysK (CHAP-K), a D-alany-glycyl endopeptidase were performed. The samples were eluted from the Zip Tips with 50:50:0.01 (v/v/v) CH3OH:H2O:[…] (pH˜2), and NanoESI-MS analysis was performed on a Q-TOF Ultima API mass spectrometer (Micromass, UK).

The next series deals with Bacillus pumulis, BJ0055. As to the kind of experiment: plate lysis assay (spectrum of lytic activity). Type of series: cell-based. On the set-up: key: strong lytic zone = ++; weak lytic zone = +; no lytic zone = −. The following applies: 6 μg. The method, then: (§1) The PlyGRCS spectrum of lytic activity was performed (Schmelcher M et al. (2012) Chimeric phage lysins act synergistically with lysostaphin to kill mastitis-causing Staphylococcus aureus in murine mammary glands. Appl Environ Microbiol 78(7):2297-305) with minor modifications. Bacterial cells were diluted in sterile PBS to an OD600=1, and 100 μl was spread on each plate. 10 μl spots (600 μg/ml) of PlyGRCS or CHAPGRCS were applied. Plates were incubated overnight at 37° C. Strength of lytic zones was defined qualitatively.

Series [3] has as its system Streptococcus pneumoniae, ATCC BAA-334. In words: plate lysis assay (spectrum of lytic activity). The series is classed as cell-based. On the set-up: key: strong lytic zone = ++; weak lytic zone = +; no lytic zone = −. The conditions noted are these: 6 μg. How it is done:
as §1

Series [4] has as its system Enterococcus facealis, EF24. As to the kind of experiment: plate lysis assay (spectrum of lytic activity). On the set-up: key: strong lytic zone = ++; weak lytic zone = +; no lytic zone = −. The series is classed as cell-based. The conditions noted are these: 6 μg. How it is done:
as §1

Series [5] has as its system Staphylococcus aureus, NRS-385. As to the kind of experiment: plate lysis assay (spectrum of lytic activity). Type of series: cell-based. On the set-up: key: strong lytic zone = ++; weak lytic zone = +; no lytic zone = −. The following applies: 6 μg; S. aureus NRS-385, MRSA. The method, then:
as §1

For series [6], the system named is Streptococcus uberis, ATCC 700407. In words: plate lysis assay (spectrum of lytic activity). On the set-up: key: strong lytic zone = ++; weak lytic zone = +; no lytic zone = −. The following applies: 6 μg. Type of series: cell-based. The method, then:
as §1

Series [7] deals with Streptococcus equi, ATCC 9528. As to the kind of experiment: plate lysis assay (spectrum of lytic activity). The series is classed as cell-based. On the set-up: key: strong lytic zone = ++; weak lytic zone = +; no lytic zone = −. The following applies: 6 μg. How it is done:
as §1

The test system of series [8] is Streptococcus pyogenes, D471. As to the kind of experiment: plate lysis assay (spectrum of lytic activity). On the set-up: key: strong lytic zone = ++; weak lytic zone = +; no lytic zone = −. The series is classed as cell-based. The following applies: 6 μg. How it is done:
as §1

Series [9] concerns Staphylococcus aureus, NRS-382. In words: plate lysis assay (spectrum of lytic activity). The following applies: 6 μg; S. aureus NRS-382, MRSA. On the set-up: key: strong lytic zone = ++; weak lytic zone = +; no lytic zone = −. The series is classed as cell-based. The method, then:
as §1

Series [10] concerns Streptococcus suis, 730082. In words: plate lysis assay (spectrum of lytic activity). Type of series: cell-based. The following applies: 6 μg. On the set-up: key: strong lytic zone = ++; weak lytic zone = +; no lytic zone = −. How it is done:
as §1

The subject of series [11] is S. aureus NRS-14 static biofilms. As to the kind of experiment: biofilm assay (crystal violet staining). The series is classed as cell-based, Staphylococcus aureus. The following applies: 6.25 μg/ml, 1 hour, 1 day biofilms. The method, then:
An overnight culture of S. aureus NRS-14 (1 ml per well) was placed into 24-well CELLBIND plates (Corning) containing 500 μl of TSB per well. After an additional 24 hour incubation at 37° C., media was aspirated and samples were washed with PBS to remove unattached cells. Two-fold serial dilutions of PlyGRCS in triplicate were added in 1 ml BP buffer pH 7 and incubated at 37° C. for one hour. Liquid was aspirated and samples were washed with distilled water before drying. Biofilms were stained with 0.01% crystal violet for 10 min at room temperature. After removing the excess crystal violet, samples were washed with PBS and dried before the addition of 1 ml 10% SDS to extract the crystal violet from the biomass for quantification at OD595.

The mark [12] stands for this setting: highest dose of 28 to 1.75 μg/ml dose response.

B1: PlyGRCS: endolysin of bacteriophage GRCS (ORF15), amino acids 1-250, SEQ ID NO: 5, C-terminal 6× His tag (protein)
chain: MKSQQQAKEWIYKHEGTGVDFDGAYGFQCMDLAVAYVYYITDGKVRMWGNAKDAINNDFKGLATVYENTPSFKPQLGDVAVYTNSQYGHIQCVISGNLDYYTCLEQNWLGGGFDGWEKATIRTHYYDGVTHFIRPKFSASNSNVLETSKVNTFGNWKQNQYGTYYRNENATFTCGFLPIFARVGSPKLSEPNGYWFQPNGYTPYDEVCLSDGLVWIGYNWQGTRYYLPVRQWNGKTGNSYSIGLPWGVFS
modifications: C-terminal 6xHis tag; Synthetically generated polypeptide (PlyGRCS phage (S. aureus))
With B1, the “decrease in optical density” value in [1] (25 μg/mL) and in series [1] (setting [12]) was 70% each time. Also, the “lytic activity of EDTA-treated enzyme with excess CaCl2, compared to prior to EDTA treatment” value in [1] (5 mM EDTA then 6 mM CaCl2) is recorded as “nearly twice the lytic activity”. Also, in [1] (5 mM EDTA then 6 mM MgCl2), the “lytic activity of EDTA-treated enzyme with magnesium” value is “mimicked that of the EDTA-treated sample”. The “lytic activity after EDTA treatment” value in series [1] (5 mM EDTA, 10 minutes) was “devoid of lytic activity”. The “decrease in activity by NaCl” value in series [1] (500 mM NaCl, BP buffer pH 7.0) is given as about 35%. The “optimal pH for lytic activity” value in series [1] (BP buffer, pH range 3.0 to 11.0) amounted to 7.0. The “time to 50% decrease in optical density” value in [1] (setting [12]) was under 10 min. Moreover, the “hydrolytic activities (cleavage specificity)” value in series [2] was “both N-acetylmuramoyl-L-alanine amidase and D-alanyl-glycyl endopeptidase hydrolytic activities”. The “strength of lytic zone” value in the series with Bacillus pumulis, BJ0055 is “−”; in [3] it was “−”; in series [4], “−”; in series [5], “+”; in [6] it was “−”; in [7], “−”. Besides, the entries for the “strength of lytic zone” value in series [8], in [9] and in series [10] were “−”, “+” and “−”, respectively. Besides, in series [11], the “decrease in biofilm biomass” value is listed as about 50%.
